B2: JD+, the Josephin domain plus residues 183-221 (ataxin-3 residues 1-221) (domain or fragment, UniProt P54252 1-221, looked up)
chain: MESIFHEKQEGSLCAQHCLNNLLQGEYFSPVELSSIAHQLDEEERMRMAEGGVTSEDYRTFLQQPSGNMDDSGFFSIQVISNALKVWGLELILFNSPEYQRLRIDPINERSFICNYKEHWFTVRKLGKQWFNLNSLLTGPELISDTYLALFLAQLQQEGYSIFVVKGDLPDCEADQLLQMIRVQQMHRPKLIGEELAQLKEQRVHKTDLERVLEANDGSGM
notes: ataxin-3 residues 1-221, made by a stop codon in the gene encoding ataxin-3 14Q; printed mass 27,704.4 Da; also called ataxin-3 1-221

Data set [1] concerns the target ataxin-3 14Q (UniProt P54252). As to the kind of experiment: native MS; nanoESI-MS; 16-fold excess of QBP1 over ataxin-3 14Q (Supplementary Figure 1).
Data set [2] deals with T1, MBP-183-221, maltose binding protein linked to residues 183-221 of ataxin-3 (UniProt P54252 183-221).
T1 construct: printed mass 49,207.6 Da; MBP drawn from PDB 1LLS; not shown: MBP, N-terminal, kept
T1 chain (looked up): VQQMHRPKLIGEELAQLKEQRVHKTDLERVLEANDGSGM
As to the kind of experiment: native MS; nanoESI-MS; equimolar QBP1 (for the TEV-cleaved MBP fusion the ratio is not told). The following applies: both partners purified.

Data set [3] addresses ataxin-3 14Q (UniProt P54252). The data set is described as follows: native MS; nanoESI-MS; 10 μM protein and 50 μM QBP1 (five-fold molar excess) in 250 mM ammonium hydrogen carbonate, 1 mM dithiothreitol, pH 7.8.
The target in data set [4] is ataxin-3 78Q (UniProt P54252). The data set is described as above.
Data set [5] concerns the target T2, JDU1, the Josephin domain plus the first UIM (ataxin-3 residues 1-241) (UniProt P54252 1-241).
T2 construct: ataxin-3 residues 1-241, made by a stop codon in the gene encoding ataxin-3 14Q; printed mass 30,046.7 Da
The description is as above. As to conditions: both partners purified.

The target of data set [6] is B2. The data set is described as above. As to conditions: both partners purified.
The target in data set [7] is ataxin-3 14Q (UniProt P54252). As to the kind of experiment: 1H T1rho NMR (signal of the peptide); 50 μM QBP1 and 10 μM protein in 250 mM ammonium hydrogen carbonate, 10% (v/v) D2O; 100 ms spin-lock; methyl region 0.45-0.75 ppm integrated.
Data set [8] has as its target ataxin-3 78Q (UniProt P54252). Described as above.
Data set [9] concerns the molecule itself. As to the kind of experiment: native MS; nanoESI-MS; 10 μM protein and 50 μM QBP1 (five-fold molar excess) in 250 mM ammonium hydrogen carbonate, 1 mM dithiothreitol, pH 7.8.

Where no end group is shown, it is not given here.

B1: polyQ binding peptide 1 (peptide)
peptide: Ac-SNWKWWPGIFD
notes: printed mass 1477.6 Da; also called QBP1; source: synthetic peptide, bought: Bio-Synthesis Inc
Take B1: the stoichiometry N (with ataxin-3 14Q [1]; in data set [2]; with ataxin-3 14Q [3]; with ataxin-3 78Q [4]; in data set [5]; in [6]) was 1 each time. The loss of QBP1 signal in T1rho NMR with ataxin-3 14Q [7] is 22%; in the data set with ataxin-3 78Q [8] it was 24%.

Regarding B2, in data set [9], the stoichiometry N (usually the number of molecules, sites or subunits per partner or assembly) came to 2.

For the origin of these results see publication PMC6134688, “Identification of a novel site of interaction between ataxin-3 and the amyloid aggregation inhibitor polyglutamine binding peptide 1” (European Journal of Mass Spectrometry (Chichester, England), 2017).
